Paper PMC8940645

Assays:
[1] = active lysate incubation, R4-ICD/FGFR4 immunoblot ratio; settings: glycan lost; control: wild type
[2] = confocal immunofluorescence, giantin co-staining; settings: glycan lost; control: wild type
[3] = kifunensine 5 μM time course, R4-ICD immunoblot; settings: glycan changed form; control: 0 h kifunensine
[4] = NGI-1 overnight, R4-ICD immunoblot; settings: glycan lost; control: vehicle

FGFR4: N311Q
other: proteolytic processing, other: relative scale 0 to 3+ [1]: decreases, ++ vs +++ | localisation_or_trafficking [2]: no change

FGFR4: N322Q
localisation_or_trafficking [2]: no change

FGFR4: kifunensine 16 h
other: proteolytic processing [3]: no change

FGFR4: NGI-1 10 μM
other: proteolytic processing [4]: increases

FGFR4: NGI-1 100 μM
other: proteolytic processing [4]: no change

FGFR4: kifunensine 8 h
other: proteolytic processing [3]: increases

FGFR4: N290Q
other: proteolytic processing, other: relative scale 0 to 3+ [1]: abolishes, 0 vs +++ | localisation_or_trafficking [2]: no change
